Measurements as given in EP1758924B1 (Council of Scientific and Industrial Research, dated 2005).

How the values were obtained:
[1] = target: T1, Hsp16.3 (16 kDa alpha-crystallin like heat-shock protein of Mycobacterium tuberculosis), recombinant, 6 X His … (Mycobacterium tuberculosis); assay: reverse phage ELISA on coated Hsp16.3, anti-M13-HRP, A405
T1 construct: also called M. tuberculosis Acr (Hsp16.3) protein

[2] = target: T2, bovine serum albumin (BSA) (bovine, UniProt P02769 25-607); assay: reverse phage ELISA, A405
T2 construct: Negative control target in the reverse phage ELISA
T2 sequence (P02769 25-607 limits assumed): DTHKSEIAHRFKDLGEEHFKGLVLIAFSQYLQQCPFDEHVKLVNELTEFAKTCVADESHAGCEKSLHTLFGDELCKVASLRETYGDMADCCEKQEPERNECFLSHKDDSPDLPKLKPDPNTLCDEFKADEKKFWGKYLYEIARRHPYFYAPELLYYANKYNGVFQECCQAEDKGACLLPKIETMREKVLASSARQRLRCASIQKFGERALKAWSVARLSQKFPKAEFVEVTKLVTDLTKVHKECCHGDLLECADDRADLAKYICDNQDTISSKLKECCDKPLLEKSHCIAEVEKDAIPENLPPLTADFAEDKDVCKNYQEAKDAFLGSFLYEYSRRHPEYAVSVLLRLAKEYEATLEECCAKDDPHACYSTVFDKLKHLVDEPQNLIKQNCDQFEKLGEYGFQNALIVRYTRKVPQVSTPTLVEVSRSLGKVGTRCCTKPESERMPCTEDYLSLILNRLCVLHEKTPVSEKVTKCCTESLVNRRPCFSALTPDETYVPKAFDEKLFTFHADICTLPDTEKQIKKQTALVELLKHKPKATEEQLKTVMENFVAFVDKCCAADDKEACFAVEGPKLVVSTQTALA

Binder	fold binding over BSA background [1] [fold]	binding result [2]
KMHATNH (Tested as whole phage in the reverse phage ELISA; not shown: fused to an M13 coat protein (spacer Gly-Gly-Gly-Ser is named))	~3	no binding
YPHHFKHRHIPI (Tested as whole phage in the reverse phage ELISA; not shown: fused to an M13 coat protein (spacer Gly-Gly-Gly-Ser is named))	–	no binding
